Source: US20260167721A1 (ABLEXIS, published 2026)
Each block holds one binder with its values, some of them ahead of it.

Tests used:
recombinant CD3 proteins [1] = molecular target: T1, recombinant CD3 proteins (UniProt P07766 23-126); assay: Octet BLI, recombinant CD3; Full R^2 0.9688
T1 construct: elsewhere it uses human CD3 E/D and E/G heterodimers

recombinant CD3 proteins [2] = molecular target: T1, recombinant CD3 proteins; assay: Octet BLI, recombinant CD3; Full R^2 0.8423
recombinant CD3 proteins [3] = molecular target: T1, recombinant CD3 proteins; assay: Octet BLI, recombinant CD3; Full R^2 0.9968
recombinant CD3 proteins [4] = molecular target: T1, recombinant CD3 proteins; assay: Octet BLI, recombinant CD3; Full R^2 0.998
recombinant CD3 proteins [5] = molecular target: T1, recombinant CD3 proteins; assay: Octet BLI, recombinant CD3; Full R^2 0.9986
recombinant CD3 proteins [6] = molecular target: T1, recombinant CD3 proteins; assay: Octet BLI, recombinant CD3; Full R^2 0.9872
recombinant CD3 proteins [7] = molecular target: T1, recombinant CD3 proteins; assay: Octet BLI, recombinant CD3; Full R^2 0.9966
recombinant CD3 proteins [8] = molecular target: T1, recombinant CD3 proteins; assay: Octet BLI, recombinant CD3; Full R^2 0.966
recombinant CD3 proteins [9] = molecular target: T1, recombinant CD3 proteins; assay: Octet BLI, recombinant CD3; Full R^2 0.9823
recombinant CD3 proteins [10] = molecular target: T1, recombinant CD3 proteins; assay: Octet BLI, recombinant CD3; Full R^2 0.9991

T1 sequence (P07766 23-126): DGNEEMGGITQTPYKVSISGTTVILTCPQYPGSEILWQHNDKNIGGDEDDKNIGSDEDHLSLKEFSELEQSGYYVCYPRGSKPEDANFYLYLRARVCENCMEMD

Kd (recombinant CD3 proteins [3]): 334 nM
koff (recombinant CD3 proteins [3]): 0.00459 s⁻¹
kon (recombinant CD3 proteins [3]): 13800 M⁻¹ s⁻¹
B3: CD3 × CD33-BspAb90 (bispecific antibody)
chain 1: not shown
chain 2: EVQLVQSGAEVKKPGSSVKVSCKASGYTITDSNIHWVRQAPGQSLEWIGYIYPYNGGTDYNQKFKNRATLTVDNPTNTAYMELSSLRSEDTAFYYCVNGNPWLAYWGQGTLVTVSSASTKGPSVFPLAPSSKSTSGGTAALGCLVKDYFPEPVTVSWNSGALTSGVHTFPAVLQSSGLYSLSSVVTVPSSSLGTQTYICNVNHKPSNTKVDKRVEPKSCDKTHTCPPCPAPEFEGGPSVFLFPPKPKDTLMISRTPEVTCVVVDVSHEDPEVKFNWYVDGVEVHNAKTKPREEQYNSTYRVVSVLTVLHQDWLNGKEYKCKVSNKALPASIEKTISKAKGQPREPQVCTLPPSREEMTKNQVSLSCAVKGFYPSDIAVEWESNGQPENNYKTTPPVLDSDGSFFLVSKLTVDKSRWQQGNVFSCSVMHEALHNRFTQKSLSLSPGK
chain 3: DIQLTQSPSTLSASVGDRVTITCRASESLDNYGIRFLTWFQQKPGKAPKLLMYAASNQGSGVPSRFSGSGSGTEFTLTISSLQPDDFATYYCQQTKEVPWSFGQGTKVEVKRTVAAPSVFIFPPSDEQLKSGTASVVCLLNNFYPREAKVQWKVDNALQSGNSQESVTEQDSKDSTYSLSSTLTLSKADYEKHKVYACEVTHQGLSSPVTKSFNRGEC

Kd (recombinant CD3 proteins [6]): 14.8 nM
koff (recombinant CD3 proteins [6]): 0.00516 s⁻¹
kon (recombinant CD3 proteins [6]): 349000 M⁻¹ s⁻¹
B6: CD3 × CD33-BspAb93 (bispecific antibody)
chain 1: NFMLTQPHSVSESPGKTVTISCTRSSGSIASKYVQWYQQRPGSSPTTVIYEDNQRPSGVPDRFSGSIDSSSNSASLTISGLKTEDEADYYCQSYYSNNRVFGCGTKLTVLGGGGSGGGGSGGGGSGGGGSEVQLVESGGGLVQPGGSLRLSCAASGFTFSRYSMNWVRQAPGKCLEWVSYISRSSTTIYYADSVKGRFTISRDNAKNSLYLQMNSLRDEDAAVYYCARERWELLYFDYWGQGTLVTVSSDKTHTCPPCPAPEFEGGPSVFLFPPKPKDTLMISRTPEVTCVVVDVSHEDPEVKFNWYVDGVEVHNAKTKPREEQYNSTYRVVSVLTVLHQDWLNGKEYKCKVSNKALPASIEKTISKAKGQPREPQVYTLPPCREEMTKNQVSLWCLVKGFYPSDIAVEWESNGQPENNYKTTPPVLDSDGSFFLYSKLTVDKSRWQQGNVFSCSVMHEALHNHYTQKSLSLSPGK
chain 2: B3 chain 2
chain 3: B3 chain 3

Kd (recombinant CD3 proteins [8]): 8.44 nM
koff (recombinant CD3 proteins [8]): 0.00457 s⁻¹
kon (recombinant CD3 proteins [8]): 542000 M⁻¹ s⁻¹
B8: CD3 × CD33-BspAb95 (bispecific antibody)
chain 1: NFMLTQPHSVSESPGKTVTISCTRSSGSIASNYVQWYQQRPGSSPTTVIYEDNQRSSGVPDRFSGSIDSSSNSASLTISGLKTEDEADYYCQSYDRSNRVFGCGTKLTVLGGGGSGGGGSGGGGSGGGGSEVQLVESGGGLVKPGGSLRLSCSASGFTFSTYTMNWVRQAPGKCLEWVSSISKSSSYIYYTDSVKGRFTISRDNAKNSLYLQMNSLRAEDTAVYYCARERRTLAFDIWGQGTMVTVSSDKTHTCPPCPAPEFEGGPSVFLFPPKPKDTLMISRTPEVTCVVVDVSHEDPEVKFNWYVDGVEVHNAKTKPREEQYNSTYRVVSVLTVLHQDWLNGKEYKCKVSNKALPASIEKTISKAKGQPREPQVYTLPPCREEMTKNQVSLWCLVKGFYPSDIAVEWESNGQPENNYKTTPPVLDSDGSFFLYSKLTVDKSRWQQGNVFSCSVMHEALHNHYTQKSLSLSPGK
chain 2: B3 chain 2
chain 3: B3 chain 3

Kd (recombinant CD3 proteins [10]): 276 nM
koff (recombinant CD3 proteins [10]): 0.0854 s⁻¹
kon (recombinant CD3 proteins [10]): 309000 M⁻¹ s⁻¹
B10: CD3 × CD33-BspAb97 (bispecific antibody)
chain 1: SYELTQPPSVSVSPGQTARITCSGDALPKKYAYWYQQKSGQAPVLVIYEDSKRPSGIPERFSGSSSGTMATLTISGAQVEDEADYYCYSTDSSGNHWVFGCGTKLTVLGGGGSGGGGSGGGGSGGGGSEVQLVESGGGLVKPGGSLRLSCAASGFTFSNYYMNWVRQAPGKCLERVSSISSSSNYIYYADSVKGRFTISRDNAKNSLYLQMNSLRAEDTAVYYCARDRRELPLDYWGQGTVVTVSSDKTHTCPPCPAPEFEGGPSVFLFPPKPKDTLMISRTPEVTCVVVDVSHEDPEVKFNWYVDGVEVHNAKTKPREEQYNSTYRVVSVLTVLHQDWLNGKEYKCKVSNKALPASIEKTISKAKGQPREPQVYTLPPCREEMTKNQVSLWCLVKGFYPSDIAVEWESNGQPENNYKTTPPVLDSDGSFFLYSKLTVDKSRWQQGNVFSCSVMHEALHNHYTQKSLSLSPGK
chain 2: B3 chain 2
chain 3: B3 chain 3

Further lines, the binder ahead of its results:

B1: CD3 × CD33-BspAb88 (bispecific antibody)
chain 1: QVQLVQSGAEVKKPGASLKVSCKASGYTFTSYYMHWVRQAPGQCLEWMGIINPSNGNTISAQKFQGRVTMTRDTSTSTVYMEMSSLRSEDTAVYYCVRSWGYYVMDVWGQGTTVTVSSGGGGSGGGGSGGGGSGGGGSQTVVTQEPSFSVSPGGTVTLTCGLNSGSVSTSYYPSWYQQTPGQTPRTLIYSTNTRSSGVPDRFSGSILGNKAALTITGAQADDESDYYCVLYMGSGIWVFGCGTKLTVLDKTHTCPPCPAPEFEGGPSVFLFPPKPKDTLMISRTPEVTCVVVDVSHEDPEVKFNWYVDGVEVHNAKTKPREEQYNSTYRVVSVLTVLHQDWLNGKEYKCKVSNKALPASIEKTISKAKGQPREPQVYTLPPCREEMTKNQVSLWCLVKGFYPSDIAVEWESNGQPENNYKTTPPVLDSDGSFFLYSKLTVDKSRWQQGNVFSCSVMHEALHNHYTQKSLSLSPGK
chain 2: B3 chain 2
chain 3: B3 chain 3
Kd (recombinant CD3 proteins [1]): 12.6 nM
koff (recombinant CD3 proteins [1]): 0.000778 s⁻¹
kon (recombinant CD3 proteins [1]): 61800 M⁻¹ s⁻¹

B2: CD3 × CD33-BspAb89 (bispecific antibody)
chain 1: not shown
chain 2: B3 chain 2
chain 3: B3 chain 3
Kd (recombinant CD3 proteins [2]): 24.4 nM
koff (recombinant CD3 proteins [2]): 0.0578 s⁻¹
kon (recombinant CD3 proteins [2]): 2.37e+06 M⁻¹ s⁻¹

B4: CD3 × CD33-BspAb91 (bispecific antibody)
chain 1: DIQMTQSPSTLSASVGDRVTITCRASQSISSWLAWFQQKTGKAPKLLIYKASSLESGVPSRFSGSGSGTEFTLTISSLQPDDFATYYCQQYISYSWTFGCGTKVEIKGGGGSGGGGSGGGGSGGGGSEVQLVESGGGLVQRGGSLRLSCAASGFTFSNYWMSWVRQAPGKCLEWVANIKEDGSEKYYVDSVKGRFTISRDNAKHSLYLQMNSLRAEDTAVYYCARERRTGYFDYWGQGTLVTVSSDKTHTCPPCPAPEFEGGPSVFLFPPKPKDTLMISRTPEVTCVVVDVSHEDPEVKFNWYVDGVEVHNAKTKPREEQYNSTYRVVSVLTVLHQDWLNGKEYKCKVSNKALPASIEKTISKAKGQPREPQVYTLPPCREEMTKNQVSLWCLVKGFYPSDIAVEWESNGQPENNYKTTPPVLDSDGSFFLYSKLTVDKSRWQQGNVFSCSVMHEALHNHYTQKSLSLSPGK
chain 2: B3 chain 2
chain 3: B3 chain 3
Kd (recombinant CD3 proteins [4]): 63.8 nM
koff (recombinant CD3 proteins [4]): 0.00203 s⁻¹
kon (recombinant CD3 proteins [4]): 31900 M⁻¹ s⁻¹

B5: CD3 × CD33-BspAb92 (bispecific antibody)
chain 1: not shown
chain 2: B3 chain 2
chain 3: B3 chain 3
Kd (recombinant CD3 proteins [5]): 43.8 nM
koff (recombinant CD3 proteins [5]): 0.00051 s⁻¹
kon (recombinant CD3 proteins [5]): 11600 M⁻¹ s⁻¹

B7: CD3 × CD33-BspAb94 (bispecific antibody)
chain 1: NFMLTQPHSVSESPGKTVTISCTRSSGSIASNYVQWYQQRPGSSPTTVIYEDNQRPSGVPDRFSGSIDSSSNSASLTISGLKTEDEADYYCQSYDSSNRVFGCGTKLTVLGGGGSGGGGSGGGGSGGGGSEVQLVESGGGLVKPGGSLRLSCAASGFTFSSYTMNWVRQAPGKCLEWVSSITTSSSYIYYADSVKGRFTISRDNAKNSLYLQMNSLRAEDTAVYYCARVTFDAFDIWGQGTMVTVSSDKTHTCPPCPAPEFEGGPSVFLFPPKPKDTLMISRTPEVTCVVVDVSHEDPEVKFNWYVDGVEVHNAKTKPREEQYNSTYRVVSVLTVLHQDWLNGKEYKCKVSNKALPASIEKTISKAKGQPREPQVYTLPPCREEMTKNQVSLWCLVKGFYPSDIAVEWESNGQPENNYKTTPPVLDSDGSFFLYSKLTVDKSRWQQGNVFSCSVMHEALHNHYTQKSLSLSPGK
chain 2: B3 chain 2
chain 3: B3 chain 3
Kd (recombinant CD3 proteins [7]): 645 nM
koff (recombinant CD3 proteins [7]): 0.0738 s⁻¹
kon (recombinant CD3 proteins [7]): 115000 M⁻¹ s⁻¹

B9: CD3 × CD33-BspAb96 (bispecific antibody)
chain 1: SYELTQPPSVSVSPGQTARITCSGDALPKKYAYWYQQKSGQAPVLVIYEDSKRPSGIPERFSGSSSGTMATLTISGAQVEDEADYYCYSTDSSGNHSWVFGCGTKLTVLGGGGSGGGGSGGGGSGGGGSEVQLVESGGGLVKPGGSLRLSCAASGFTFSSYSMNWVRQAPGKCLEWVSSVNSRGSYIYYADSVKGRFTISRDNAKDSLYLQMNSLRADDTAVYYCARDRRELLLDYWGQGTLVTVSSDKTHTCPPCPAPEFEGGPSVFLFPPKPKDTLMISRTPEVTCVVVDVSHEDPEVKFNWYVDGVEVHNAKTKPREEQYNSTYRVVSVLTVLHQDWLNGKEYKCKVSNKALPASIEKTISKAKGQPREPQVYTLPPCREEMTKNQVSLWCLVKGFYPSDIAVEWESNGQPENNYKTTPPVLDSDGSFFLYSKLTVDKSRWQQGNVFSCSVMHEALHNHYTQKSLSLSPGK
chain 2: B3 chain 2
chain 3: B3 chain 3
Kd (recombinant CD3 proteins [9]): 573 nM
koff (recombinant CD3 proteins [9]): 0.21 s⁻¹
kon (recombinant CD3 proteins [9]): 366000 M⁻¹ s⁻¹
